Tests used:
[1] = test system: GFP-14-3-3β and its binding proteins; test: GFP-14-3-3β co-IP with LC-MS/MS label-free quantification, untreated versus PP1c-treated; parameters: species or system human; details: label-free quantification, 3 replicates each
[2] = test system: GFP-14-3-3β; test: GFP-14-3-3β co-IP with LC-MS/MS, untreated GFP-14-3-3β versus GFP control (14-3-3 interactome); type: binding, human; details: label-free quantification, 3 replicates each
[3] = GFP-14-3-3β co-IP LC-MS/MS, PP1 vs untreated, student's t-test
[4] = GFP-14-3-3β co-IP LC-MS/MS, untreated vs GFP, student's t-test

Row | Molecule | Difference (log2), PP1 vs untreated [1, 3] | Difference (log2), PP1 vs untreated ([1]; log2 difference, pairwise comparison PP1 vs untreated) | Difference (log2), untreated vs GFP [2, 4] | Difference (log2), untreated vs GFP ([2]; log2 difference, pairwise comparison untreated vs GFP)
1 | FAM120A (protein, UniProt Q9NZB2 1-1118, looked up) Constitutive coactivator of …: MGVQGFQDYIEKHCPSAVVPVELQKLARGSLVGGGRQRPPQTPLRLLVDADNCLHRLYGGFYTDWVSGGQWNHMLGYLAALAKACFGGNIELFVFFNGALEKARLHEWVKRQGNERQTAQQIVSHVQNKGTPPPKVWFLPPVCMAHCIRLALIRFHVKVAQSIEDHHQEVIGFCRENGFHGLVAYDSDYALCNIPYYFSAHALKLSRNGKSLTTSQYLMHEVAKQLDLNPNRFPIFAALLGNHILPDEDLASFHWSLLGPEHPLASLKVRAHQLVLPPCDVVIKAVADYVRNIQDTSDLDAIAKDVFQHSQSRTDDKVIRFKRAIGYYSATSKPMSFHPPHYLAARPGPFGMPGMVPPHVPPQMLNIPQTSLQAKPVAPQVPSPGGAPGQGPYPYSLSEPAPLTLDTSGKNLTEQNSYSNIPHEGKHTPLYERSSPINPAQSGSPNHVDSAYFPGSSTSSSSDNDEGSGGATNHISGNKIGWEKTGSHSEPQARGDPGDQTKAEGSSTASSGSQLAEGKGSQMGTVQPIPCLLSMPTRNHMDITTPPLPPVAPEVLRVAEHRHKKGLMYPYIFHVLTKGEIKIAVSIEDEANKDLPPAALLYRPVRQYVYGVLFSLAESRKKTERLAFRKNRLPPEFSPVIIKEWAAYKGKSPQTPELVEALAFREWTCPNLKRLWLGKAVEDKNRRMRAFLACMRSDTPAMLNPANVPTHLMVLCCVLRYMVQWPGARILRRQELDAFLAQALSPKLYEPDQLQELKIENLDPRGIQLSALFMSGVDMALFANDACGQPIPWEHCCPWMYFDGKLFQSKLLKASREKTPLIDLCDGQADQAAKVEKMRQSVLEGLSFSRQSHTLPFPPPPALPFYPASAYPRHFGPVPPSQGRGRGFAGVCGFGGPYGETVATGPYRAFRVAAASGHCGAFSGSDSSRTSKSQGGVQPIPSQGGKLEIAGTVVGHWAGSRRGRGGRGPFPLQVVSVGGPARGRPRGVISTPVIRTFGRGGRYYGRGYKNQAAIQGRPPYAASAEEVAKELKSKSGESKSSAMSSDGSLAENGVMAEEKPAPQMNGSTGDARAPSHSESALNNDSKTCNTNPHLNALSTDSACRREAALEAAVLNKEE |  | 1.725 |  | -0.07006
2 | COBL (protein, UniProt O75128 1-1261, looked up) Protein cordon-bleu: MDAPRASAAKPPTGRKMKARAPPPPGKAATLHVHSDQKPPHDGALGSQQNLVRMKEALRASTMDVTVVLPSGLEKRSVLNGSHAMMDLLVELCLQNHLNPSHHALEIRSSETQQPLSFKPNTLIGTLNVHTVFLKEKVPEEKVKPGPPKVPEKSVRLVVNYLRTQKAVVRVSPEVPLQNILPVICAKCEVSPEHVVLLRDNIAGEELELSKSLNELGIKELYAWDNRRETFRKSSLGNDETDKEKKKFLGFFKVNKRSNSKGCLTTPNSPSMHSRSLTLGPSLSLGSISGVSVKSEMKKRRAPPPPGSGPPVQDKASEKVSLGSQIDLQKKKRRAPAPPPPQPPPPSPLIPNRTEDKEENRKSTMVSLPLGSGSHCSPDGAPQVLSEAEETVSVGSCFASEDTTEDSGVMSSPSDIVSLDSQQDSMKYKDKWATDQEDCSDQDLAGTPDLGPQKSPLWEKNGSENSHLRTEKAVTASNDEEDLLIAGEFRKTLAELDEDLEEMEDSYETDTSSLTSSIHGASNHCPQDAMIPHGDTDAIPVTFIGEVSDDPVDSGLFSNRNNNAGSFDSEGVASRRDSLAPLQAEHSQPHEKAREEVPALHPASHDVGKGIRVALSNISKDGNLMETAPRVTSFASNLHTDNLNAKVKDKVYGCADGERTQATERVNSQPVNEKDSNDKNAALAPTSWHQRGQNPGKSYRLKHGLTTYKIIPPKSEMRCYDRDVSLSTGAIKIDELGNLVSPHATGIRIISLSSSVPEAESQPIGKVREFWRCNSVEKHLGRPSESSARGPPSTPVPTQTQNPESRLQADPKPISPQQKSAHHEGRNPLGEGRNQPPTMGMGHVRVPAAHTTEVTFLKPQRRTSSQYVASAIAKRIGAPKVHADVVRPHGYAEKGYAGKAPVLAAPPVTVKDDRTSSPHSETQGWKDGAQWPCVTPPNNHGEDLAVGAPPRGEVIGPHRKLSTQDRPAAIHRSSCFSLVQSSQRDRVSVGQSCGFSGKQSTSSQEASSASEPRRAPDGTDPPPPHTSDTQACSRELVNGSVRAPGHGEPSHPPGGSGTESHILLEREEKPSVFSTDGNETDSIWPPSIFGPKKKFKPVVQRPVPKDTSLHSALMEAIHSAGGKDRLRKTAEHTGEGRPAKLSYTEAEGERSALLAAIRGHSGTCSLRKVASSASEELQSFRDAALSAQGSESPLLEDLGLLSPPAIPPPPPPPSQALSAPRTASRFSTGTLSNTADARQALMDAIRSGTGAARLRKVPLLV | -0.2795 log2 |  | -0.6052 log2 | 
3 | CANX (protein, UniProt P27824 21-592, looked up) Calnexin: HDGHDDDVIDIEDDLDDVIEEVEDSKPDTTAPPSSPKVTYKAPVPTGEVYFADSFDRGTLSGWILSKAKKDDTDDEIAKYDGKWEVEEMKESKLPGDKGLVLMSRAKHHAISAKLNKPFLFDTKPLIVQYEVNFQNGIECGGAYVKLLSKTPELNLDQFHDKTPYTIMFGPDKCGEDYKLHFIFRHKNPKTGIYEEKHAKRPDADLKTYFTDKKTHLYTLILNPDNSFEILVDQSVVNSGNLLNDMTPPVNPSREIEDPEDRKPEDWDERPKIPDPEAVKPDDWDEDAPAKIPDEEATKPEGWLDDEPEYVPDPDAEKPEDWDEDMDGEWEAPQIANPRCESAPGCGVWQRPVIDNPNYKGKWKPPMIDNPSYQGIWKPRKIPNPDFFEDLEPFRMTPFSAIGLELWSMTSDIFFDNFIICADRRIVDDWANDGWGLKKAADGAAEPGVVGQMIEAAEERPWLWVVYILTVALPVFLVILFCCSGKKQTSGMEYKKTDAPQPDVKEEEEEKEEEKDKGDEEEEGEEKLEEKQKSDAEEDGGTVSQEEEDRKPKAEEDEILNRSPRNRKPRRE | -0.251 log2 |  | 0.347 log2 | 

Now from value to molecule, other results behind:

Row | Difference (log2), PP1 vs untreated [1, 3] | Difference (log2), PP1 vs untreated ([1]; log2 difference, pairwise comparison PP1 vs untreated) | Molecule | Difference (log2), untreated vs GFP [2, 4] | Difference (log2), untreated vs GFP ([2]; log2 difference, pairwise comparison untreated vs GFP)
4 | -0.2458 log2 |  | WDR36 (protein, UniProt Q8NI36 1-895, looked up) WD repeat-containing protein …: MERASERRTASALFAGFRALGLFSNDIPHVVRFSALKRRFYVTTCVGKSFHTYDVQKLSLVAVSNSVPQDICCMAADGRLVFAAYGNVFSAFARNKEIVHTFKGHKAEIHFLQPFGDHIISVDTDGILIIWHIYSEEEYLQLTFDKSVFKISAILHPSTYLNKILLGSEQGSLQLWNVKSNKLLYTFPGWKVGVTALQQAPAVDVVAIGLMSGQVIIHNIKFNETLMKFRQDWGPITSISFRTDGHPVMAAGSPCGHIGLWDLEDKKLINQMRNAHSTAIAGLTFLHREPLLVTNGADNALRIWIFDGPTGEGRLLRFRMGHSAPLTNIRYYGQNGQQILSASQDGTLQSFSTVHEKFNKSLGHGLINKKRVKRKGLQNTMSVRLPPITKFAAEEARESDWDGIIACHQGKLSCSTWNYQKSTIGAYFLKPKELKKDDITATAVDITSCGNFAVIGLSSGTVDVYNMQSGIHRGSFGKDQAHKGSVRGVAVDGLNQLTVTTGSEGLLKFWNFKNKILIHSVSLSSSPNIMLLHRDSGILGLALDDFSISVLDIETRKIVREFSGHQGQINDMAFSPDGRWLISAAMDCSIRTWDLPSGCLIDCFLLDSAPLNVSMSPTGDFLATSHVDHLGIYLWSNISLYSVVSLRPLPADYVPSIVMLPGTCQTQDVEVSEETVEPSDELIEYDSPEQLNEQLVTLSLLPESRWKNLLNLDVIKKKNKPKEPPKVPKSAPFFIPTIPGLVPRYAAPEQNNDPQQSKVVNLGVLAQKSDFCLKLEEGLVNNKYDTALNLLKESGPSGIETELRSLSPDCGGSIEVMQSFLKMIGMMLDRKRDFELAQAYLALFLKLHLKMLPSEPVLLEEITNLSSQVEENWTHLQSLFNQSMCILNYLKSALL | 1.174 log2 | 
5 | -0.2324 log2 |  | NAT10 (protein, UniProt Q9H0A0 1-1025, looked up) RNA cytidine acetyltransferase: MHRKKVDNRIRILIENGVAERQRSLFVVVGDRGKDQVVILHHMLSKATVKARPSVLWCYKKELGFSSHRKKRMRQLQKKIKNGTLNIKQDDPFELFIAATNIRYCYYNETHKILGNTFGMCVLQDFEALTPNLLARTVETVEGGGLVVILLRTMNSLKQLYTVTMDVHSRYRTEAHQDVVGRFNERFILSLASCKKCLVIDDQLNILPISSHVATMEALPPQTPDESLGPSDLELRELKESLQDTQPVGVLVDCCKTLDQAKAVLKFIEGISEKTLRSTVALTAARGRGKSAALGLAIAGAVAFGYSNIFVTSPSPDNLHTLFEFVFKGFDALQYQEHLDYEIIQSLNPEFNKAVIRVNVFREHRQTIQYIHPADAVKLGQAELVVIDEAAAIPLPLVKSLLGPYLVFMASTINGYEGTGRSLSLKLIQQLRQQSAQSQVSTTAENKTTTTARLASARTLYEVSLQESIRYAPGDAVEKWLNDLLCLDCLNITRIVSGCPLPEACELYYVNRDTLFCYHKASEVFLQRLMALYVASHYKNSPNDLQMLSDAPAHHLFCLLPPVPPTQNALPEVLAVIQVCLEGEISRQSILNSLSRGKKASGDLIPWTVSEQFQDPDFGGLSGGRVVRIAVHPDYQGMGYGSRALQLLQMYYEGRFPCLEEKVLETPQEIHTVSSEAVSLLEEVITPRKDLPPLLLKLNERPAERLDYLGVSYGLTPRLLKFWKRAGFVPVYLRQTPNDLTGEHSCIMLKTLTDEDEADQGGWLAAFWKDFRRRFLALLSYQFSTFSPSLALNIIQNRNMGKPAQPALSREELEALFLPYDLKRLEMYSRNMVDYHLIMDMIPAISRIYFLNQLGDLALSAAQSALLLGIGLQHKSVDQLEKEIELPSGQLMGLFNRIIRKVVKLFNEVQEKAIEEQMVAAKDVVMEPTMKTLSDDLDEAAKEFQEKHKKEVGKLKSMDLSEYIIRGDDEEWNEVLNKAGPNASIISLKSDKKRKLEAKQEPKQSKKLKNRETKNKKDMKLKRKK | 2.262 log2 | 
6 | -0.251 log2 |  | XPOT (protein, UniProt O43592 1-962, looked up) Exportin-T: MDEQALLGLNPNADSDFRQRALAYFEQLKISPDAWQVCAEALAQRTYSDDHVKFFCFQVLEHQVKYKYSELTTVQQQLIRETLISWLQAQMLNPQPEKTFIRNKAAQVFALLFVTEYLTKWPKFFFDILSVVDLNPRGVDLYLRILMAIDSELVDRDVVHTSEEARRNTLIKDTMREQCIPNLVESWYQILQNYQFTNSEVTCQCLEVVGAYVSWIDLSLIANDRFINMLLGHMSIEVLREEACDCLFEVVNKGMDPVDKMKLVESLCQVLQSAGFFSIDQEEDVDFLARFSKLVNGMGQSLIVSWSKLIKNGDIKNAQEALQAIETKVALMLQLLIHEDDDISSNIIGFCYDYLHILKQLTVLSDQQKANVEAIMLAVMKKLTYDEEYNFENEGEDEAMFVEYRKQLKLLLDRLAQVSPELLLASVRRVFSSTLQNWQTTRFMEVEVAIRLLYMLAEALPVSHGAHFSGDVSKASALQDMMRTLVTSGVSSYQHTSVTLEFFETVVRYEKFFTVEPQHIPCVLMAFLDHRGLRHSSAKVRSRTAYLFSRFVKSLNKQMNPFIEDILNRIQDLLELSPPENGHQSLLSSDDQLFIYETAGVLIVNSEYPAERKQALMRNLLTPLMEKFKILLEKLMLAQDEERQASLADCLNHAVGFASRTSKAFSNKQTVKQCGCSEVYLDCLQTFLPALSCPLQKDILRSGVRTFLHRMIICLEEEVLPFIPSASEHMLKDCEAKDLQEFIPLINQITAKFKIQVSPFLQQMFMPLLHAIFEVLLRPAEENDQSAALEKQMLRRSYFAFLQTVTGSGMSEVIANQGAENVERVLVTVIQGAVEYPDPIAQKTCFIILSKLVELWGGKDGPVGFADFVYKHIVPACFLAPLKQTFDLADAQTVLALSECAVTLKTIHLKRGPECVQYLQQEYLPSLQVAPEIIQEFCQALQQPDAKVFKNYLKVFFQRAKP | 1.37 log2 | 

From PMC7367873, “Dissecting the sequence determinants for dephosphorylation by the catalytic subunits of phosphatases PP1 and PP2A” (Nature Communications, 2020)
